Results from patent publication US11111296B2, “Compositions and methods for treating cardiac dysfunction” (THE BROAD INSTITUTE, INC., priority 2015, dated 2021).

B1: S100A8/9: RAGE ligand, cachexia-inducing (protein)
chain 1: MLTELEKALNSIIDVYHKYSLIKGNFHAVYRDDLKKLLETECPQYIRKKGADVWFKELDINTDGAVNFQEFLILVIKMGVAAHKKSHEESHKE
chain 2: MTCKMSQLERNIETIINTFHQYSVKLGHPDTLNQGEFKELVRKDLQNFLKKENKNEKVIEHIMEDLDTNADKQLSFEEFIMLMARLTWASHEKMHEGDEGPGHHHKPGLGEGTP
B2: S100P: RAGE ligand, non-cachexia-inducing (protein)
chain: MTELETAMGMIIDVFSRYSGSEGSTQTLTKGELKVLMEKELPGFLQSGKDKDAVDKLLKDLDANGDAQVDFSEFIVFVAAITSACHKYFEKAGLK
B3: S100B: RAGE ligand, non-cachexia-inducing (protein)
chain: SELEKAMVALIDVFHQYSGREGDKHKLKKSELKELINNELSHFLEEIKEQEVVDKVMETLDNDGDGECDFQEFMAFVAMVTTACHEFFEHE
B4: S100A7: RAGE ligand, cachexia-inducing; sequence NP_002954.2 (protein)
chain: MSNTQAERSIIGMIDMFHKYTRRDDKIEKPSLLTMMKENFPNFLSACDKKGTNYLADVFEKKDKNEDKKIDFSEFLSLLGDIATDYHKQSHGAAPCSGGSQ

Test system: myosin heavy chain in cells
Assay: cachexia functional assay (levels of myosin heavy chain in treated cells)
Type: cell-based
Settings: for cachexia-inducing activity of RAGE ligands: FIG. 8
Description: The compounds that are thus designed or selected may further be tested in an in vitro, in vivo, or ex vivo assays to determine if they regulate RAGE. Such assays are known to one skilled in the art. In some embodiments, the assay is a cachexia functional assay as described herein and further described in PCT/US2014/068631, which is incorporated herewith in its entirety.
In studies described herein below, a refined model of the cachectic signal was obtained (FIG. 2). Functional sites on the RAGE polypeptide were determined using a combination of experiments mapping binding interface(s) of anti-RAGE antibodies with RAGE polypeptide using hydrogen-deuterium exchange (HDEX) reactions and cachexia functional assays. As described elsewhere herein, results of the cachexia functional assay indicate whether a candidate agent (e.g., a particular anti-RAGE antibody) has cachexia-inhibitory or cachexia-inducing activity, as measured, for example, by levels of myosin heavy chain in cells treated with the candidate agent relative to a control or baseline myosin heavy chain level.

Row | Molecule | cachexia-inhibitory activity (levels of myosin heavy chain) (cells treated with various concentrations of FPS3 (FIG. 7B)) | cachexia-inducing activity of RAGE ligands
1 | CCCCCC(=Cc1ccccc1)CN(CCc1c[nH]c2ccccc12)C(=O)c1ccc(Cl)c([N+](=O)[O-])c1 [FPS3, reference compound] | had cachexia-inhibitory activity | –
2 | B1 | – | cachexia-inducing
3 | B2 | – | non-cachexia-inducing
4 | B3 | – | non-cachexia-inducing
5 | B4 | – | cachexia-inducing
